The values that follow come from PMC7721913.

This experiment concerns the target HA-SFPQ (human) (UniProt P23246). Kind of experiment: co-IP.

Myc-KLC1 ΔTail (domain or fragment), sequence (O88447 whole entry, stated change not applied, the tested form may be a part): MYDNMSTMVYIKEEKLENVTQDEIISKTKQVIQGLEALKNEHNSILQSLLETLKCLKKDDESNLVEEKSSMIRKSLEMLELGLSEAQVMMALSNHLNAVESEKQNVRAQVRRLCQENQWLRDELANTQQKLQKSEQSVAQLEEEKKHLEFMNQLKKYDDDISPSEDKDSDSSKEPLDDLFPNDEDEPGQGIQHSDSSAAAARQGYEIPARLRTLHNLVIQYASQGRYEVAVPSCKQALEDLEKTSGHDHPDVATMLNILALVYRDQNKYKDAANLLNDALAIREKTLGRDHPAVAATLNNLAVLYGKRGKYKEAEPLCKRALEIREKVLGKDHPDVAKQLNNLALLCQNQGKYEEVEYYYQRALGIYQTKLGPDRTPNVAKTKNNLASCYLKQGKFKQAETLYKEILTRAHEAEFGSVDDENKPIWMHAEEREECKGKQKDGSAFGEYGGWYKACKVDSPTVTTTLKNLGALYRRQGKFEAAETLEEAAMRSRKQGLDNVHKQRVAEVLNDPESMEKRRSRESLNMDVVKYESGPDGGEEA
HA-SFPQ (human), sequence (P23246 whole entry): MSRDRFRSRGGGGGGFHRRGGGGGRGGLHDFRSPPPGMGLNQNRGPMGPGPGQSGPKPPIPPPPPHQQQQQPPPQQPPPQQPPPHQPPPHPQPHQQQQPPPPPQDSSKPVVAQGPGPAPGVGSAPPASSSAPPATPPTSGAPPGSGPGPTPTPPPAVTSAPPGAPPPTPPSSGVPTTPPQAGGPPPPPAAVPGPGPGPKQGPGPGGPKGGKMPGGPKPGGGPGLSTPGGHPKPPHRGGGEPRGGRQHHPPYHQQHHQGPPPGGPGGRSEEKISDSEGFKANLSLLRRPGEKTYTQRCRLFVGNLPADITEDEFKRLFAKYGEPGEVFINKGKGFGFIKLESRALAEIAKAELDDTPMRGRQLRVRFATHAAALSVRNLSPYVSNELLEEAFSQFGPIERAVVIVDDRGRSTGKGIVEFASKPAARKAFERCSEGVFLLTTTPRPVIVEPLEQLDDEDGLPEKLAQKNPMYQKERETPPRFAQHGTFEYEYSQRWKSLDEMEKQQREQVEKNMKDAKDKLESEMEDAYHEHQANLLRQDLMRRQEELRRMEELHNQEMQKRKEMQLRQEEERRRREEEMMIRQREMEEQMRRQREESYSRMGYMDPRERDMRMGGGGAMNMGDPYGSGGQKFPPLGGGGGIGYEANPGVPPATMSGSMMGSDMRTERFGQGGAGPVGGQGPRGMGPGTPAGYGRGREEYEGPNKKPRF

Myc-KLC1 ΔTail (domain or fragment) came in with a reduction of binding against WT KLC1 of 50%.
